± gives the standard deviation of the averaged measurements.
Assay: total protein half-life in vivo (active degradation + dilution); higher = more stable protein
[1] = E. coli NCM3722 delta-clpP delta-lon delta-hslV, growth: N-lim chemostat, doubling time 6 h
[2] = E. coli NCM3722 delta-hslV, growth: N-lim chemostat, doubling time 6 h
[3] = E. coli NCM3722 delta-smpB, growth: N-lim chemostat, doubling time 6 h
[4] = wild type E. coli NCM3722, growth: C-lim chemostat, doubling time 3 h
[5] = wild type E. coli NCM3722, growth: C-lim chemostat, doubling time 6 h
[6] = wild type E. coli NCM3722, growth: C-lim chemostat, doubling time 12 h
[7] = wild type E. coli NCM3722, growth: N-lim chemostat, doubling time 12 h
[8] = wild type E. coli NCM3722, growth: P-lim chemostat, doubling time 12 h
[9] = wild type E. coli NCM3722, growth: N-lim chemostat, doubling time 6 h
[10] = E. coli NCM3722 delta-clpP, growth: N-lim chemostat, doubling time 6 h
[11] = E. coli NCM3722 delta-lon, growth: N-lim chemostat, doubling time 6 h
[12] = wild type E. coli NCM3722, growth: P-lim chemostat, doubling time 6 h

Sequence	total protein half-life in vivo [1] [h]	total protein half-life in vivo [2] [h]	total protein half-life in vivo [3] [h]	total protein half-life in vivo [4] [h]	total protein half-life in vivo [5] [h]	total protein half-life in vivo [6] [h]	total protein half-life in vivo [7] [h]	total protein half-life in vivo [8] [h]	total protein half-life in vivo [9] [h]	total protein half-life in vivo [10] [h]	total protein half-life in vivo [11] [h]	total protein half-life in vivo [12] [h]
MLIPSKLSRPVRLDHTVVRERLLAKLSGANNFRLALITSPAGYGKTTLISQWAAGKNDIGWYSLDEGDNQQERFASYLIAAVQQATNGHCAICETMAQKRQYASLTSLFAQLFIELAEWHSPLYLVIDDYHLITNPVIHESMRFFIRHQPENLTLVVLSRNLPQLGIANLRVRDQLLEIGSQQLAFTHQEAKQFFDCRLSSPIEAAESSRICDDVSGWATALQLIALSARQNTHSAHKSARRLAGINASHLSDYLVDEVLDNVDLATRHFLLKSAILRSMNDALITRVTGEENGQMRLEEIERQGLFLQRMDDTGEWFCYHPLFGNFLRQRCQWELAAELPEIHRAAAESWMAQGFPSEAIHHALAAGDALMLRDILLNHAWSLFNHSELSLLEESLKALPWDSLLENPQLVLLQAWLMQSQHRYGEVNTLLARAEHEIKDIREDTMHAEFNALRAQVAINDGNPDEAERLAKLALEELPPGWFYSRIVATSVLGEVLHCKGELTRSLALMQQTEQMARQHDVWHYALWSLIQQSEILFAQGFLQTAWETQEKAFQLINEQHLEQLPMHEFLVRIRAQLLWAWARLDEAEASARSGIEVLSSYQPQQQLQCLAMLIQCSLARGDLDNARSQLNRLENLLGNGKYHSDWISNANKVRVIYWQMTGDKAAAANWLRHTAKPEFANNHFLQGQWRNIARAQILLGEFEPAEIVLEELNENARSLRLMSDLNRNLLLLNQLYWQAGRKSDAQRVLLDALKLANRTGFISHFVIEGEAMAQQLRQLIQLNTLPELEQHRAQRILREINQHHRHKFAHFDENFVERLLNHPEVPELIRTSPLTQREWQVLGLIYSGYSNEQIAGELEVAATTIKTHIRNLYQKLGVAHRQDAVQHAQQLLKMMGYGV	6.02 ± 0.46	0.718	0.786	0.61 ± 0.1	1.05 ± 0.094	1.38 ± 0.18	0.803	1.36	–	–	–	–
MSYPLFDKDEHWHKPEQAFLTDDHRTILRFAVEALMSGKGAVLVTLVEIRGGAARPLGAQMVVREDGRYCGFVSGGCVEAAAAFEALEMMGSGRDREIRYGEGSPWFDIVLPCGGGITLTLHKLRSAQPLLAVLNRLEQRKPVGLRYDPQAQSLVCLPTQTRTGWNLNGFEVGFRPCVRLMIYGRSLEAQATASLAAATGYDSHIFDLFPASASAQIDTDTAVILLCHDLNRELPVLQAAREAKPFYLGALGSYRTHTLRLQKLHELGWSREETTQIRAPVGIFPKARDAHTLALSVLAEVASVRLHQEEDSCLPPSS	5.9 ± 0.33	–	–	–	–	–	–	–	–	–	–	–
MAFVSEREIVRKIFSKKIDFTILAFFYISSIFFLLCSGVLFQYFTAAFTKGNCYECSMKLDYIKQFYFSLETAWYLISAVAVFIASVFIQHRIKAYLTLLAITWIVLTITDVALIHALDNIAMNNILLNILYNLFGAILLSLFMCLSNSLLFHLNKIKHIPMILSAMIPLVSAIIIAILITAVIYLLFARQAVEIEMDISEGSDIAYVGVKDNEESFGFLNDKKTDTPTYLDVIKNGSLIYNDTQGLSGADIYIVSGCYALPDLLRNVPLDAKKSFLNVKKLEITQKLPMMGFIQGESADVMPKAASRLSLSKQDDKFMLASSVTDSQIKFKSNNAQLMVAFAFMPITTNGILHDYTYDIIINDKKYKIENHVAPLSRLDKNKKMKCEYQQISDLTNTYNINANYLTGFLLVLKPDDIINYNNSPSVLLKTDFAFYKKTYQKLDKIYDDISNGKLSSLRATGISQFSINGKHLSLRPESEIIISEGSLYGLVNKSKKIKIYGTADLVFVDNKIMNLRKITYLQSKLEIFGSSIMDILKYIFGLGLLAISIKFIHSYFKNDVNENLFL	–	–	–	–	–	–	–	2.3 ± 0.71	2.06	–	–	–
MKYSLGPVLWYWPKETLEEFYQQAATSSADVIYLGEAVCSKRRATKVGDWLEMAKSLAGSGKQIVLSTLALVQASSELGELKRYVENGEFLIEASDLGVVNMCAERKLPFVAGHALNCYNAVTLKILLKQGMMRWCMPVELSRDWLVNLLNQCDELGIRNQFEVEVLSYGHLPLAYSARCFTARSEDRPKDECETCCIKYPNGRNVLSQENQQVFVLNGIQTMSGYVYNLGNELASMQGLVDVVRLSPQGTDTFAMLDAFRANENGAAPLPLTANSDCNGYWRRLAGLELQA	3.35	–	–	–	–	–	–	–	–	–	–	–
MSNLTGTDKSVILLMTIGEDRAAEVFKHLSQREVQTLSAAMANVTQISNKQLTDVLAEFEQEAEQFAALNINANDYLRSVLVKALGEERAASLLEDILETRDTASGIETLNFMEPQSAADLIRDEHPQIIATILVHLKRAQAADILALFDERLRHDVMLRIATFGGVQPAALAELTEVLNGLLDGQNLKRSKMGGVRTAAEIINLMKTQQEEAVITAVREFDGELAQKIIDEMFLFENLVDVDDRSIQRLLQEVDSESLLIALKGAEQPLREKFLRNMSQRAADILRDDLANRGPVRLSQVENEQKAILLIVRRLAETGEMVIGSGEDTYV [P0ABZ1]	4.83	–	–	2.31 ± 0.33	3.78 ± 0.1	5.85 ± 0.23	–	–	–	5.19	–	–
MISVTLSQLTDILNGELQGADITLDAVTTDTRKLTPGCLFVALKGERFDAHDFADQAKAGGAGALLVSRPLDIDLPQLIVKDTRLAFGELAAWVRQQVPARVVALTGSSGKTSVKEMTAAILSQCGNTLYTAGNLNNDIGVPMTLLRLTPEYDYAVIELGANHQGEIAWTVSLTRPEAALVNNLAAAHLEGFGSLAGVAKAKGEIFSGLPENGIAIMNADNNDWLNWQSVIGSRKVWRFSPNAANSDFTATNIHVTSHGTEFTLQTPTGSVDVLLPLPGRHNIANALAAAALSMSVGATLDAIKAGLANLKAVPGRLFPIQLAENQLLLDDSYNANVGSMTAAVQVLAEMPGYRVLVVGDMAELGAESEACHVQVGEAAKAAGIDRVLSVGKQSHAISTASGVGEHFADKTALITRLKLLIAEQQVITILVKGSRSAAMEEVVRALQENGTC	4.74 ± 0.18	5.24 ± 0.92	4.68 ± 0.057	3.37 ± 0.67	6.24 ± 1.3	9.83 ± 0.28	7.03 ± 0.19	10.2 ± 1.7	4.48 ± 0.31	4.41 ± 0.27	4.44 ± 0.34	5.79 ± 0.27
MSLWKKISLGVVIVILLLLGSVAFLVGTTSGLHLVFKAADRWVPGLDIGKVTGGWRDLTLSDVRYEQPGVAVKAGNLHLAVGLECLWNSSVCINDLALKDIQVNIDSKKMPPSEQVEEEEDSGPLDLSTPYPITLTRVALDNVNIKIDDTTVSVMDFTSGLNWQEKTLTLKPTSLKGLLIALPKVAEVAQEEVVEPKIENPQPDEKPLGETLKDLFSRPVLPEMTDVHLPLNLNIEEFKGEQLRVTGDTDITVSTMLLKVSSIDGNTKLDALDIDSSQGIVNASGTAQLSDNWPVDITLNSTLNVEPLKGEKVKLKMGGALREQLEIGVNLSGPVDMDLRAQTRLAEAGLPLNVEVNSKQLYWPFTGEKQYQADDLKLKLTGKMTDYTLSMRTAVKGQEIPPATITLDAKGNEQQVNLDKLTVAALEGKTELKALLDWQQAISWRGELTLNGINTAKEFPDWPSKLNGLIKTRGSLYGGTWQMDVPELKLTGNVKQNKVNVDGTLKGNSYMQWMIPGLHLELGPNSAEVKGELGVKDLNLDATINAPGLDNALPGLGGTAKGLVKVRGTVEAPQLLADITARGLRWQELSVAQVRVEGDIKSTDQIAGKLDVRVEQISQPDVNINLVTLNAKGSEKQHELQLRIQGEPVSGQLNLAGSFDRKEERWKGTLSNTRFQTPVGPWSLTRDIALDYRNKEQKISIGPHCWLNPNAELCVPQTIDAGAEGRAVVNLNRFDLAMLKPFMPETTQASGIFTGKADVAWDTTKEGLPQGSITLSGRNVQVTQTVNDAALPVAFQTLNLTAELRNNRAELGWTIRLTNNGQFDGQVQVTDPQGRRNLGGNVNIRNFNLAMINPIFTRGEKAAGMVSANLRLGGDVQSPQLFGQLQVTGVDIDGNFMPFDMQPSQLAVNFNGMRSTLAGTVRTQQGEIYLNGDADWSQIENWRARVTAKGSKVRITVPPMVRMDVSPDVVFEATPNLFTLDGRVDVPWARIVVHDLPESAVGVSSDVVMLNDNLQPEEPKTASIPINSNLIVHVGNNVRIDAFGLKARLTGDLNVVQDKQGLGLNGQINIPEGRFHAYGQDLIVRKGELLFSGPPDQPYLNIEAIRNPDATEDDVIAGVRVTGLADEPKAEIFSDPAMSQQAALSYLLRGQGLESDQSDSAAMTSMLIGLGVAQSGQIVGKIGETFGVSNLALDTQGVGDSSQVVVSGYVLPGLQVKYGVGIFDSIATLTLRYRLMPKLYLEAVSGVDQALDLLYQFEF	5.88 ± 0.49	6.95 ± 0.39	5.69 ± 0.29	3.04 ± 0.044	5.97 ± 0.5	11.7 ± 1.2	12.1 ± 0.24	12.22 ± 0.066	6.2514 ± 0.0027	6.03 ± 0.44	6.374 ± 0.041	5.992 ± 0.026
